Biological target: the molecule itself
Assay: native gel or EMSA; in vitro produced proteins (wheat germ TnT) mixed with a DY-682 labelled ~100 bp DNA probe containing a CArG-box (SAUR10 probe); protein complexes read from the shifted bands on DNA; anti-FLAG antibody added for supershift where FUL-FLAG was used

B1: FRUITFULL (FUL), Arabidopsis, in vitro produced (natural protein)
chain: not shown
notes: also called FUL(ST); source: in vitro translated (TnT SP6 High-Yield Wheat Germ Protein Expression System, pSPUTK vector)
stoichiometry N: 2

Source: PMC11602133, “Uncoupling [sequence]’s functions through modification of a protein motif identified by co-ortholog analysis” (Nucleic Acids Research, 2024)
